Here are results for 1 molecule from patent US20250066499A1 (SUNSHINE GUOJIAN PHARMACEUTICAL SHANGHAI, published 2025).

Changes are numbered by the printed parent chain. Where two headings read alike, the source gives them in different places.

Holding throughout (assay): ELISA; decline multiple of EC50 against CD73-ND
(In general: In an ELISA, binding on a coated surface is turned into a signal by an enzyme label.)

The target of assay [1] is T1, CD73-ND-his (human, UniProt P21589 27-317).
T1 construct: Biotinylated and captured on streptavidin in the ELISA
T1 sequence: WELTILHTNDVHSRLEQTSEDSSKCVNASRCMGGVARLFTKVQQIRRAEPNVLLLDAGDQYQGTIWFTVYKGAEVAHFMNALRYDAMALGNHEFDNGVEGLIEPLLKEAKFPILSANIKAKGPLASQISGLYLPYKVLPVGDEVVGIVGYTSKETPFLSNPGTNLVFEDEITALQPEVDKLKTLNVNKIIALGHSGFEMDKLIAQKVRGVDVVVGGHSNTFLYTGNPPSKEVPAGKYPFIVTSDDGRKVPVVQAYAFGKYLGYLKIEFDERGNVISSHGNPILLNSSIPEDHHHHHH
How it is done: (§1) The ELISA plates were coated with SA protein diluted to 1.5 μg/mL in coating buffer (50 mM carbonate coating buffer, pH 9.6) and incubated overnight at 4° C. The supernatant was discarded, and the plates were washed three times with PBST. Then, 5% skimmed milk powder prepared with PBS was added for blocking and the plates were incubated for 2 h at 37° C. After washing the plates once with PBST, CD73-biotin protein (prepared by biotinylating CD73-His protein according to the EZ-Link NHS-Biotin Reagent instructions) was diluted to 0.5 μg/mL and added at 100 μL/well for incubation at room temperature for 1 h. The plates were washed three times with PBST, and the prepared murine-derived monoclonal antibodies against human CD73 were serially diluted with 1% BSA buffer prepared with PBST and added to the ELISA plates at 100 μl/well. The plates were incubated at 37° C. for 1 h. After washing the plates three times with PBST, HRP-labeled goat anti-mouse IgG secondary antibody was added and the plates were incubated for 30 min at 37° C. After washing the plates three times with PBST, the residual droplets were patted dry on absorbent paper as much as possible. Then, 100 μl of TMB color developing solution was added to each well, and the plates were incubated in the dark at room temperature for 5 min for color development. Subsequently, 50 μl of 2M H₂SO₄ stop solution was added to each well to terminate the substrate reaction. The OD values were read at 450 nm using a multimode microplate reader to analyze the binding ability of the tested antibodies to the target antigen human CD73-His.
(§2) Referring to the experimental method in Example 3, the affinity of 48A11-HuV33 for various mutant proteins of CD73-ND was determined. The SA protein was diluted to 1 μg/mL for coating the ELISA plates, and the biotinylated CD73 protein (CD73-biotin) was used at a concentration of 0.1 μg/mL.

A further assay has as its target T2, CD73-ND-V140A (human, UniProt P21589 27-317).
T2 construct: Alanine mutant of CD73-ND
T2 sequence: T1 sequence with V140A
As to the method:
as §1, §2

The target of a further assay is T3, CD73-ND-L184A (human, UniProt P21589 27-317).
T3 construct: Alanine mutant of CD73-ND
T3 sequence: T1 sequence with L184A
How it is done:
as §1, §2

For another assay, the target named is T4, CD73-ND-D142A (human, UniProt P21589 27-317).
T4 construct: Alanine mutant of CD73-ND
T4 sequence: T1 sequence with D142A
As to the method:
as §1, §2

In assay [2] the target is T1, CD73-ND-his. As to the method: as §1, §2
This is another data set of the same source.

In a further assay the target is T5, CD73-ND-V137A (human, UniProt P21589 27-317).
T5 construct: Alanine mutant of CD73-ND
T5 sequence: T1 sequence with V137A
How it is done: as §1, §2

For another assay, the target named is T6, CD73-ND-L133A (human, UniProt P21589 27-317).
T6 construct: Alanine mutant of CD73-ND
T6 sequence: T1 sequence with L133A
As to the method: as §1, §2

B1: 48A11-HuV33 (antibody, human IgG4, V domains shown)
VH: QVQLVQSGAEVKKPGASVKVSCKASGYTFTSYWMHWVRQAPGQGLEWIGEINPSIGRTNYNEKFKSRVTLTRDTSTSTAYMELSSLRSEDTAVYYCARRVYGTMDYWGQGTLVTVSS
VL: DIQMTQSPSSLSASVGDRVTITCKASQDINSYLSWFQQKPGKSPKLLIYRANIWVDGVPSRFSGSGSGQDYTFTISSLQPEDIATYYCLQYDELYTFGQGTKVEIK
notes: Humanized
On to B1, for which the “Ratio(EC50)” value in the assay with CD73-ND-his [1] turned out to be 1 fold; with CD73-ND-V140A, 0.6 fold; with CD73-ND-L184A it was 3.4 fold; in the assay with CD73-ND-D142A, 1.9 fold; with CD73-ND-his [2] it was 1 fold; with CD73-ND-V137A, 5.9 fold. For the same molecule, in the assay with CD73-ND-L133A, the “Ratio(EC50)” value came to 169 fold.
